This note sets out measurements from the Human Domainome abundance scans (Beltran et al. 2025).

First the molecules themselves.
B1: Ras GTPase-activating protein 1, residues 281 to 341; numbered along this chain, P20936 (parent)
chain: RRRVRAILPYTKVPDTDEISFLKGDMFIVHNELEDGWMWVTNLRTDEQGLIVEDLVEEVGR

± gives the uncertainty stated by the source.

The variants in the data set derive from B1. Put plainly: abundance fitness (aPCA) (normalised: wild type 0, dead -1); higher = more abundant; growth selection in yeast, the domain comes from the species named. The settings on record: Homo sapiens.
As to RRRVRAYLPYTKVPDTDEISFLKGDMFIVHNELEDGWMWVTNLRTDEQGLIVEDLVEEVGR [I7Y], the abundance fitness is -0.366 ± 0.032.
Take RRRVRACLPYTKVPDTDEISFLKGDMFIVHNELEDGWMWVTNLRTDEQGLIVEDLVEEVGR [I7C]: the abundance fitness is -0.231 ± 0.029.
In the case of RRRVRAELPYTKVPDTDEISFLKGDMFIVHNELEDGWMWVTNLRTDEQGLIVEDLVEEVGR [I7E], the abundance fitness is -0.551 ± 0.1.
On to RRRVRALLPYTKVPDTDEISFLKGDMFIVHNELEDGWMWVTNLRTDEQGLIVEDLVEEVGR [I7L], for which the abundance fitness was -0.066 ± 0.03.
Turning to RRRVRAMLPYTKVPDTDEISFLKGDMFIVHNELEDGWMWVTNLRTDEQGLIVEDLVEEVGR [I7M], the abundance fitness is -0.167 ± 0.065.
Turning to RRRVRASLPYTKVPDTDEISFLKGDMFIVHNELEDGWMWVTNLRTDEQGLIVEDLVEEVGR [I7S], the abundance fitness was -0.236 ± 0.027.
Turning to RRRVRAQLPYTKVPDTDEISFLKGDMFIVHNELEDGWMWVTNLRTDEQGLIVEDLVEEVGR [I7Q], the abundance fitness is -0.473 ± 0.11.
Consider RRRVRAGLPYTKVPDTDEISFLKGDMFIVHNELEDGWMWVTNLRTDEQGLIVEDLVEEVGR [I7G], for which the abundance fitness was -0.735 ± 0.044.
With RRRVRATLPYTKVPDTDEISFLKGDMFIVHNELEDGWMWVTNLRTDEQGLIVEDLVEEVGR [I7T], the abundance fitness was -0.088 ± 0.047.
Under RRRVRANLPYTKVPDTDEISFLKGDMFIVHNELEDGWMWVTNLRTDEQGLIVEDLVEEVGR [I7N] stands -0.292 ± 0.032; under RRRVRADLPYTKVPDTDEISFLKGDMFIVHNELEDGWMWVTNLRTDEQGLIVEDLVEEVGR [I7D], -1.01 ± 0.08.
For RRRVRAKLPYTKVPDTDEISFLKGDMFIVHNELEDGWMWVTNLRTDEQGLIVEDLVEEVGR [I7K], the abundance fitness came out at 0.037 ± 0.072.
As to RRRVRAHLPYTKVPDTDEISFLKGDMFIVHNELEDGWMWVTNLRTDEQGLIVEDLVEEVGR [I7H], the abundance fitness was -0.305 ± 0.036.
Take RRRVRARLPYTKVPDTDEISFLKGDMFIVHNELEDGWMWVTNLRTDEQGLIVEDLVEEVGR [I7R]: the abundance fitness is -0.055 ± 0.034.
On to RRRVRAALPYTKVPDTDEISFLKGDMFIVHNELEDGWMWVTNLRTDEQGLIVEDLVEEVGR [I7A], for which the abundance fitness was -0.63 ± 0.054.
Regarding RRRKRAILPYTKVPDTDEISFLKGDMFIVHNELEDGWMWVTNLRTDEQGLIVEDLVEEVGR [V4K], the abundance fitness was -0.626 ± 0.043.
For RRRIRAILPYTKVPDTDEISFLKGDMFIVHNELEDGWMWVTNLRTDEQGLIVEDLVEEVGR [V4I], the abundance fitness is -0.205 ± 0.023.
Turning to RRRARAILPYTKVPDTDEISFLKGDMFIVHNELEDGWMWVTNLRTDEQGLIVEDLVEEVGR [V4A], the abundance fitness is -0.462 ± 0.026.
With RRRERAILPYTKVPDTDEISFLKGDMFIVHNELEDGWMWVTNLRTDEQGLIVEDLVEEVGR [V4E], the abundance fitness was -0.929 ± 0.074.
Under RRRLRAILPYTKVPDTDEISFLKGDMFIVHNELEDGWMWVTNLRTDEQGLIVEDLVEEVGR [V4L] stands -0.055 ± 0.021.
Take RRRNRAILPYTKVPDTDEISFLKGDMFIVHNELEDGWMWVTNLRTDEQGLIVEDLVEEVGR [V4N]: the abundance fitness was -0.865 ± 0.033.
Consider RRRTRAILPYTKVPDTDEISFLKGDMFIVHNELEDGWMWVTNLRTDEQGLIVEDLVEEVGR [V4T], for which the abundance fitness is -0.605 ± 0.027.
For RRRRRAILPYTKVPDTDEISFLKGDMFIVHNELEDGWMWVTNLRTDEQGLIVEDLVEEVGR [V4R], the abundance fitness was -0.631 ± 0.025.
Consider RRRWRAILPYTKVPDTDEISFLKGDMFIVHNELEDGWMWVTNLRTDEQGLIVEDLVEEVGR [V4W], for which the abundance fitness is -0.597 ± 0.038.
Consider RRRCRAILPYTKVPDTDEISFLKGDMFIVHNELEDGWMWVTNLRTDEQGLIVEDLVEEVGR [V4C], for which the abundance fitness is -0.465 ± 0.023.
Regarding RRRGRAILPYTKVPDTDEISFLKGDMFIVHNELEDGWMWVTNLRTDEQGLIVEDLVEEVGR [V4G], the abundance fitness is -0.901 ± 0.027.
Turning to RRRSRAILPYTKVPDTDEISFLKGDMFIVHNELEDGWMWVTNLRTDEQGLIVEDLVEEVGR [V4S], the abundance fitness is -0.895 ± 0.027.
For the variant RRRPRAILPYTKVPDTDEISFLKGDMFIVHNELEDGWMWVTNLRTDEQGLIVEDLVEEVGR [V4P], the abundance fitness was -0.903 ± 0.045.
Regarding RRRFRAILPYTKVPDTDEISFLKGDMFIVHNELEDGWMWVTNLRTDEQGLIVEDLVEEVGR [V4F], the abundance fitness was -0.082 ± 0.021.
Take RRRHRAILPYTKVPDTDEISFLKGDMFIVHNELEDGWMWVTNLRTDEQGLIVEDLVEEVGR [V4H]: the abundance fitness was -0.739 ± 0.03.
For RRRQRAILPYTKVPDTDEISFLKGDMFIVHNELEDGWMWVTNLRTDEQGLIVEDLVEEVGR [V4Q], the abundance fitness was -0.848 ± 0.062.
On to RRRMRAILPYTKVPDTDEISFLKGDMFIVHNELEDGWMWVTNLRTDEQGLIVEDLVEEVGR [V4M], for which the abundance fitness was -0.074 ± 0.032.
As for RRSVRAILPYTKVPDTDEISFLKGDMFIVHNELEDGWMWVTNLRTDEQGLIVEDLVEEVGR [R3S], the abundance fitness is -0.136 ± 0.025.
With RRVVRAILPYTKVPDTDEISFLKGDMFIVHNELEDGWMWVTNLRTDEQGLIVEDLVEEVGR [R3V], the abundance fitness was -0.1 ± 0.028.
As for RRYVRAILPYTKVPDTDEISFLKGDMFIVHNELEDGWMWVTNLRTDEQGLIVEDLVEEVGR [R3Y], the abundance fitness was -0.045 ± 0.031.
Regarding RRWVRAILPYTKVPDTDEISFLKGDMFIVHNELEDGWMWVTNLRTDEQGLIVEDLVEEVGR [R3W], the abundance fitness was -0.378 ± 0.054.
As for RRTVRAILPYTKVPDTDEISFLKGDMFIVHNELEDGWMWVTNLRTDEQGLIVEDLVEEVGR [R3T], the abundance fitness is -0.136 ± 0.037.
In the case of RRRVRAIPPYTKVPDTDEISFLKGDMFIVHNELEDGWMWVTNLRTDEQGLIVEDLVEEVGR [L8P], the abundance fitness is -0.99 ± 0.094.
Turning to RRRVRAIFPYTKVPDTDEISFLKGDMFIVHNELEDGWMWVTNLRTDEQGLIVEDLVEEVGR [L8F], the abundance fitness is -0.075 ± 0.027.
RRRVRAIAPYTKVPDTDEISFLKGDMFIVHNELEDGWMWVTNLRTDEQGLIVEDLVEEVGR [L8A]: the abundance fitness was 0.074 ± 0.034.
As for RRRVRAIDPYTKVPDTDEISFLKGDMFIVHNELEDGWMWVTNLRTDEQGLIVEDLVEEVGR [L8D], the abundance fitness is -0.149 ± 0.033.
As to RRRVRAIQPYTKVPDTDEISFLKGDMFIVHNELEDGWMWVTNLRTDEQGLIVEDLVEEVGR [L8Q], the abundance fitness was -0.052 ± 0.058.
RRRVRAISPYTKVPDTDEISFLKGDMFIVHNELEDGWMWVTNLRTDEQGLIVEDLVEEVGR [L8S]: the abundance fitness was -0.03 ± 0.025.
